Test results as given in patent US20190002548A1 (Chugai, published 2019).
Like-named read-outs stand apart in the source and are kept apart here.

T1: Human mature myostatin (myostatin mature form; recombinant mature myostatin) (human (mature form 100% identical in …, UniProt O08689 268-376 (mouse entry), biotinylated in the Biacore assay (immobilized on a streptavidin chip); not labelled in the HEK Blue Assay)
T1 sequence: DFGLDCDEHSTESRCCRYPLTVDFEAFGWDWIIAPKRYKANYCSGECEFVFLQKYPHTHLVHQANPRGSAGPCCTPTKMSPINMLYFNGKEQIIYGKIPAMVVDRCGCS


How the values were obtained:
[1] = target: T1, Human mature myostatin (myostatin …); experiment: cell-based or functional assay
[2] = target: T1, Human mature myostatin (myostatin …); experiment: SPR, Biacore T200, 37 degrees C; biotinylated mature myostatin on streptavidin chip; ratio of dissociation rates
Description: (§1) pH dependent binding of MST0226 variants to human mature myostatin were determined at 37 degrees C. using Biacore T200 instrument (GE Healthcare). Biotinylated mature myostatin was immobilized onto streptavidin sensor chip (GE Healthcare). In order to assess pH dependent binding of MST0226 variants to mature myostatin, 100 nM of antibodies were injected over mature myostatin sensor surface at pH 7.4 (20 mM ACES, 150 mM NaCl, 1.2 mM CaCl₂), 0.05% Tween 20, 0.005% NaN₃), followed by dissociation at pH 7.4 and an additional dissociation phase at pH5.8. This is to assess the pH-dependent dissociation of antibody/antigen complexes formed at pH 7.4. The dissociation rate (kd) at both pH 7.4 and pH 5.8 buffer was determined by processing and fitting data using Scrubber 2.0 (BioLogic Software) curve fitting software. The ratio of (kd at pH5.8)/(kd at pH 7.4) gives indication of pH dependent binding, e.g. ratio>1 indicates pH dependent binding. The sensor surface was regenerated each cycle with 10 mM Glycine-HCl, pH 1.7.

[3] = target: T1, Human mature myostatin (myostatin …); experiment: SPR (Biacore T200, 37 degrees C), biotinylated mature myostatin on streptavidin chip, 100 nM antibody, dissociation at pH 7.4 then pH 5.8
Description: as §1

[4] = target: T1, Human mature myostatin (myostatin …); experiment: SPR, Biacore T200, 37 degrees C; biotinylated mature myostatin on streptavidin chip, 100 nM antibody bound at pH 7.4; dissociation phase at pH 5.8
Description: as §1

[5] = target: T1, Human mature myostatin (myostatin …); experiment: SPR, Biacore T200, 37 degrees C; biotinylated mature myostatin on streptavidin chip, 100 nM antibody bound at pH 7.4; dissociation phase at pH 7.4
Description: as §1

[6] = target: T1, Human mature myostatin (myostatin …); experiment: cell-based or functional assay; remark: listed apart in the source

| IC50 (read off the curve); HEK Blue Assay (SEAP reporter, OD620) [1] [ng/mL] | Ratio of (kd pH 5.8)/(kd pH 7.4) [2] | ratio of (kd at pH5.8)/(kd at pH 7.4) [3] | koff [4] [s⁻¹] | koff [5] [s⁻¹] | IC50 (read off the curve); HEK Blue Assay (SEAP reporter, OD620) [6] [ng/mL] | Binder |
| --- | --- | --- | --- | --- | --- | --- |
| ~7 |  |  |  |  |  | MS_MST0226Hc-G1m/MST0226La-kOMTC (antibody, human IgG1, kappa, V domains shown) VH: QSVEESGGRLVTPGGSLTLTCTVSGFSLSNYVMGWVRQAPGKGLEWIGIINISGSTYYASWAKGRFTISRTSTTVDLKMTSLTTEDTATYFCARGGDNFGYSYIDFNLWGPGTLVTVSS VL: AVVMTQTPASVSEPVGGTVTIKCQASQSISNELSWYRQKPGQPPKLLIYLASTLASGVPSRFKGSGSGTDFTLTISDLECADAATYYCQTYDGISSYGVAFGGGTKVVVER |
|  | 17.4 | 17 | 0.00228 | 0.000131 |  | MS_M22601H1020-SG1/M22608L0744-SK1 (antibody, human IgG1, kappa, V domains shown, pH-dependent variant of MSLO00-SG1; also called MSLO01-SG1; LO01-SG1) VH: EVQLVESGGGLVQPGGSLRLSCAVSGFTLSHYVKGWVRQAPGKGLEWIGIINISGSTYYASWAKGRFTISRDNSKNTVYLQMNSLRAEDTAVYFCARGHDNFGYSYHDFNLWGQGTLVTVSS VL: AVVMTQSPATLSLSPGERVTLSCQASQSIHHELSWYQQKPGQPPKLLIYLASTLASGVPSRFKGSGSGTDFTLTISSLQPEDAATYYCQTYDGISHYGVAFGQGTKVEIKR |
|  | 0.8 |  | 6.04e-05 | 7.82e-05 |  | MS_M22601H-SG1/M22608L-SK1 (antibody, human IgG1, kappa, V domains shown, Humanized form of MST0226-G1m; the non pH-dependent antibody; also called MSLO00-SG1; LO00-SG1) VH: EVQLVESGGGLVQPGGSLRLSCAVSGFTLSNYVMGWVRQAPGKGLEWIGIINISGSTYYASWAKGRFTISRDNSKNTVYLQMNSLRAEDTAVYFCARGGDNFGYSYIDFNLWGQGTLVTVSS VL: AVVMTQSPATLSLSPGERVTLSCQASQSISNELSWYQQKPGQPPKLLIYLASTLASGVPSRFKGSGSGTDFTLTISSLQPEDAATYYCQTYDGISSYGVAFGQGTKVEIKR |
|  | 25.9 | 17 | 0.00109 | 4.19e-05 | ~6 | MS_M22601H1080-SG1/M22608L0846-SK1 (antibody, human IgG1, kappa, V domains shown, pH-dependent variant of MSLO00-SG1; also called MSLO04-SG1; LO04-SG1) VH: EVQLVESGGGLVQPGGSLRLSCAVSGFTLSHYVKGWVRQAPGKGLEWIGIINIEGSTYYASWAEGRFTISRDNSKNTVYLQMNSLRAEDTAVYFCARGHDNFGYSYHDFNLWGQGTLVTVSS VL: AVVMTQSPATLSLSPGERVTLSCQASQSIHHDLSWYQQKPGQPPKLLIYLASTLASGVPSRFKGSGSGTDFTLTISSLQPEDAATYYCQTYDGISHYGVAFGQGTKVEIKR |
|  | 26.2 | 17 | 0.00254 | 9.7e-05 |  | MS_M22601H1080-SG1/M22608L0837-SK1 (antibody, human IgG1, kappa, V domains shown, pH-dependent variant of MSLO00-SG1; also called MSLO02-SG1; LO02-SG1) VH: EVQLVESGGGLVQPGGSLRLSCAVSGFTLSHYVKGWVRQAPGKGLEWIGIINIEGSTYYASWAEGRFTISRDNSKNTVYLQMNSLRAEDTAVYFCARGHDNFGYSYHDFNLWGQGTLVTVSS VL: AVVMTQSPATLSLSPGERVTLSCQASESIHHELSWYQQKPGQPPKLLIYLASTLASGVPSRFKGSGSGTDFTLTISSLQPEDAATYYCQTYDGISHYGVAFGQGTKVEIKR |
|  | 26.8 | 17 | 0.00321 | 0.00012 |  | MS_M22601H1082-SG1/M22608L0837-SK1 (antibody, human IgG1, kappa, V domains shown, pH-dependent variant of MSLO00-SG1; also called MSLO03-SG1; LO03-SG1) VH: EVQLVESGGGLVQPGGSLRLSCAVSGFTLSHYVKGWVRQAPGKGLEWIGIINIEGETYYASWAKGRFTISRDNSKNTVYLQMNSLRAEDTAVYFCARGHDNFGYSYHDFNLWGQGTLVTVSS VL: AVVMTQSPATLSLSPGERVTLSCQASESIHHELSWYQQKPGQPPKLLIYLASTLASGVPSRFKGSGSGTDFTLTISSLQPEDAATYYCQTYDGISHYGVAFGQGTKVEIKR |
| ~4 |  |  |  |  |  | MS_MST0095Hf-G1m/MST0095Lf-kOMTC (antibody, human IgG1, kappa, V domains shown) VH: QSVEESGGRLVTPGTPLTLTCTASGFSLSSYYMSWVRQAPGKGLEWIGIISSRGSTYYASWAKGRFTISKTSTTVDLKITSPTTEDTATYFCARGVVLWGPGTLVTVSS VL: ALVMTQTPASVSAAVGGTVTINCQASESIYSGLAWYQQKPGQPPKLLIYSASTLASGVPSRFRGSGSGTEYTLTINDLECADAATYYCQAYDSTNWTFGGGTEVVVKR |
